Our source for the Kd values is PMC10023680 (2023).

The labels stand for the following.
B1: GST-tagged ELMO1-RBD (residues 1-113), wild-type (domain or fragment)
chain: MPPPADIVKVAIEWPGAYPKLMEIDQKKPLSAIIKEVCDGWSLANHEYFALQHADSSNFYITEKNRNEIKNGTILRLTTSPAQNAQQLHERIQSSSMDAKLEALKDLASLSRD
B2: RhoG (residues 1-184) (domain or fragment)
chain: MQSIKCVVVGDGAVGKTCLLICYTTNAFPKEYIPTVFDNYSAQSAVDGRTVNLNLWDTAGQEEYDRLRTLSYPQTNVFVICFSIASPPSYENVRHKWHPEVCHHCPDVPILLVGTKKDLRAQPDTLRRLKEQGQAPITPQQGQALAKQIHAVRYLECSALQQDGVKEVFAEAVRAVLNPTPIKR

Common to all, as to test: SPR
(Surface plasmon resonance follows binding to a sensor surface in real time, without labels.)

The target in assay [1] is B2.
Assay [2] addresses GST-tagged ELMO1-RBD (residues 1-113) K20E (human, UniProt Q92556 1-113, K20E).
Assay [3] has as its target GST-tagged ELMO1-RBD (residues 1-113) Y18A (human, UniProt Q92556 1-113, Y18A).

Broadly, the Kd is the free concentration of one partner at which half of the binding sites on the other are occupied at equilibrium, for simple one-to-one binding. A low value points to tighter binding. As for B1, the affinity in assay [1], expressed as Kd, was 8.4 µM. In the case of B2, the dissociation constant Kd in assay [2] was found to be 18.2 µM; in assay [3], 19.3 µM.
